Results on 11 molecules are retold here after publication PMC4845985.

Substitutions are numbered along the chain they refer to. Names and notes keep the numbering of the source.

Experiment [1] has as its target fluorescein-labelled hypusine-containing human eIF5A^C22A,C38A,C73A,C129A,T142C (human) (UniProt P63241). In words: fluorescence polarisation; ribosomal complex titrated into 5-10 nM eIF5A-fl; 20 mM Hepes pH 7.5, 100 mM KOAc, 2.5 mM Mg(OAc)2, 1 mM DTT, 15 μM BSA; 30°C 30 min. (In general: In fluorescence polarisation assays a small probe gives low polarisation when free and higher when bound to something large.)

For experiment [2], the target named is human ribosomes (complex not specified) (human (endogenous in HeLa)). In words: fluorescence polarisation; yeast eIF5A with human ribosomes by anisotropy change; data not shown.
The target of experiment [3] is yeast pre-assembled 80S ribosome (yeast) (UniProt P26321). In words: fluorescence polarisation; competition: non-labeled eIF5A titrated (from 5 μM) into preformed ribosome-eIF5A-fl, ribosome 50 nM; same buffer, 30°C 30 min; apparent Ki.
Experiment [4] addresses human 60S ribosomal subunit (human (endogenous in HeLa)). The description is as above.
Experiment [5] addresses human reconstituted 80S ribosome (40S+60S) (human (endogenous in HeLa)). The experiment is described as above.
For experiment [6], the target named is human reconstituted 80S ribosome with Met-tRNAi^Met (40S+60S+Met-tRNAi^Met) (human (endogenous in HeLa)). The description is as above.
In experiment [7] the target is fluorescein-labelled hypusine-containing human eIF5A^C22A,C38A,C73A,C129A,T142C (human) (UniProt P63241). In words: fluorescence polarisation; yeast 80S titrated into eIF5A-fl in the presence of saturating eEF2 (1 μM); same buffer, 30°C.
In experiment [8] the target is yeast pre-assembled 80S ribosome (yeast) (UniProt P26321). In words: fluorescence polarisation; competition: non-labeled yeast eIF5A titrated into preformed 80S-eIF5A-fl in the presence of saturating eEF2.

For orientation: Kd means the constant that tells how readily two partners part at equilibrium. A low value points to higher affinity. In experiment [1], “human reconstituted 80S ribosome (40S+60S) (complex)” gave a Kd of 13 nM. Same read-out and setting: then “human reconstituted 80S ribosome with Met-tRNAi^Met (40S+60S+Met-tRNAi^Met) (complex)”, with 7 nM. Regarding “yeast eIF5A tested on human ribosomes (data not shown) (from UniProt P23301 1-157) (natural protein)”, the affinity (constant not named) in experiment [2] was over 2000 nM. In experiment [1], human 40S ribosomal subunit (complex) showed an equilibrium dissociation constant (Kd) of over 1700 nM. On to “non-labeled hypusine-containing human eIF5A (from UniProt P63241 1-154) (natural protein)”, for which the Ki is under 5 nM in experiment [3], 16 nM in experiment [4], 12 nM in experiment [5] and under 5 nM in experiment [6].

Turning to “non-hypusine-containing human eIF5A^T142C (lysine-containing) (from UniProt P63241 1-154) (natural protein)”, the Ki in experiment [4] was determined as 385 nM.

In turn, human 60S ribosomal subunit (complex) yielded a Kd in experiment [1] of 128 nM. For the molecule “yeast pre-assembled 80S ribosome (from UniProt P26321 1-297) (complex)”, the Kd in the presence of saturating eEF2 in experiment [7] was found to be 41 nM. In addition, the Kd in experiment [1] came to 10 nM.

B1: yeast eIF5A^C39A (natural protein)
chain: MSDEEHTFETADAGSSATYPMQCSALRKNGFVVIKSRPAKIVDMSTSKTGKHGHAKVHLVAIDIFTGKKLEDLSPSTHNMEVPVVKRNEYQLLDIDDGFLSLMNMDGDTKDDVKAPEGELGDSLQTAFDEGKDLMVTIISAMGEEAAISFKEAARTD
modifications: hypusine (co-expressed with the modifying enzymes; position not given)
As for B1, the Ki in the presence of saturating eEF2 in experiment [8] came out at 51 nM. Further, the Ki in experiment [3] worked out at 9 nM.

B2: yeast eIF5A^C39A,Q22H,L93F (natural protein)
chain: B1 chain with Q22H, L93F
modifications: hypusine-containing (position not given)
With B2, the Ki in the presence of saturating eEF2 in experiment [8] amounted to 539 nM. Also, the Ki in experiment [3] was found to be 569 nM.

B3: yeast eIF5A^C39A,K56A (natural protein)
chain: B1 chain with K56A
modifications: hypusine-containing (position not given)
Regarding B3, in experiment [8], the Ki in the presence of saturating eEF2 was 454 nM. For the same molecule, in experiment [3], the Ki was determined as 189 nM.
